Entries after “also recorded” stand apart in the source; their conditions may differ. Where two headings read alike, the source gives them in different places. No end group written: not given here.
B2: DMC1 ΔN (amino-acids 83-340), purified (domain or fragment, human, UniProt Q14565 83-340, looked up)
chain: PGFLTAFEYSEKRKMVFHITTGSQEFDKLLGGGIESMAITEAFGEFRTGKTQLSHTLCVTAQLPGAGGYPGGKIIFIDTENTFRPDRLRDIADRFNVDHDAVLDNVLYARAYTSEHQMELLDYVAAKFHEEAGIFKLLIIDSIMALFRVDFSGRGELAERQQKLAQMLSRLQKISEEYNVAVFVTNQMTADPGATMTFQADPKKPIGGHILAHASTTRISLRKGRGELRIAKIYDSPEMPENEATFAITAGGIGDAKE
modifications: amine reactive fluorescent dye (Monolith Protein Labelling Kit BLUE-NHS) in the MST only
notes: human DMC1 with its N-terminal domain deleted, amino acids 83-340; Octameric ring in the crystal and in solution; also called DMC1 core; structural core of human DMC1; source: E. coli BL21 (DE3), purified (Ni-NTA, HiTrap Q, TEV cleavage, HiTrap Q, SEC)

Tests used:
[1] = biological target: B2; experiment: MST; DMC1 ΔN or loop mutant labelled with BLUE-NHS dye, constant at 150 nM; peptide titrated in 1:1 dilutions starting from 750 µM; 10 mM HEPES pH 8.0, 150 mM NaCl, 0.05 % Tween-20; room temperature (~22 °C); affinities derived from initial fluorescence
[2] = tested on: DMC1-ssDNA filaments; experiment: EMSA, protection of DMC1-ssDNA filaments from BRC4-mediated disruption; format: biochemical, human; conditions: TEA pH 7.5 + KCl; Ex14 10-fold stoichiometric excess (110 μM); 10-fold excess of BRC4
Protocol: Finally, we tested whether binding of BRCA2 Ex14 protects DMC1-ssDNA nucleoprotein filaments from BRC4-mediated disruption (Fig. 3c). […] Further, whilst the core PhePP interaction site is sufficient to stimulate DMC1-ssDNA nucleoprotein filament formation, surrounding amino-acids that are present within Ex14 (but not Ex14-Tr) are necessary to super-shift filaments and confer protection from BRC4-mediated disruption.
(§1) To form nucleoprotein filaments, DMC1 and RAD51 was incubated with fluorescent 100-base ssDNA (5’-FAM- […]-3’) at the concentrations indicated in the figures for 30 minutes at 4 °C in reaction buffer. For DMC1, reaction buffer is 25 mM TEA (triethanolamine) pH 7.5, 1 mM ATP, 2 mM MgCl2, 0.1 mg/ml BSA, 2 mM DTT, 200 mM KCl. For RAD51, reaction buffer is 50 mM TEA (triethanolamine), 2 mM ATP, 0.5 mM MgCl2, 2 mM DTT. For assays requiring incomplete nucleoprotein filament assembly, the reaction buffer consisted of 50 mM TAE (tris, acetate, EDTA) pH 7.5, 2 mM ATP, 2 mM MgCl2, 2 mM DTT. In nucleoprotein formation stimulation assays or supershift experiments, BRCA2Ex14 or BRCA2Ex14-AAA were added for a further 30 min at 4 °C. […] Glycerol was added at a final concentration of 3%, and samples were analysed by electrophoresis on a 1% (w/v) (for DMC1) or 0.66% (w/v) (for RAD51) agarose gel in 0.5x TAE pH 8.0 at 20–40 V for ~4 h at 4 °C. DNA was detected by FAM using a Typhoon^TM FLA 9500 (GE Healthcare), with 473 nm laser at excitation wavelength 490 nm and emission wavelength 520 nm, using the LPB filter and a PMT voltage of 500 V. To analyse RAD51 nucleoprotein filaments assembled upon 100-base poly(dT) ssDNA, gels were stained post-run using SYBR^TM Gold Nucleic Acid Gel Stain (Invitrogen) and detected using a Typhoon^TM FLA 9500 (GE Healthcare).

[3] = biological target: T1, DMC1 ΔN (Homo sapiens, UniProt Q14565); experiment: Amylose pull-down of DMC1 ΔN with MBP-BRCA2 fusions; format: binding; conditions: recombinant co-expression with MBP-BRCA2 fusion
T1 construct: DMC1 ΔN (83-340) were cloned into pHAT4; His6 (TEV-cleavable) (N, cleaved yes); made in house; host or cells: E. coli BL21 (DE3)
T1 sequence (Q14565 83-340): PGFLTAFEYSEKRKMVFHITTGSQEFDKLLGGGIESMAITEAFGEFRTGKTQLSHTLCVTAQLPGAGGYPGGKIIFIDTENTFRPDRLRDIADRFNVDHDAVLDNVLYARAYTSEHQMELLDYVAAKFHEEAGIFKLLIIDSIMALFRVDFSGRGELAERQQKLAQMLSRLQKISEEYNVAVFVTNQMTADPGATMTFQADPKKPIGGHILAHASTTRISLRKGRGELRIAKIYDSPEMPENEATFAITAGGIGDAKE
From the text: For affinity pulldown experiments, MBP-fusions of BRCA2 fragments (Ex14, amino-acids 2387-2420, Ex14-Tr, amino acids 2401-2414, Ex27, amino acids 3270-3315, BRC4, amino acids 1519-1551) were cloned into pMAT11 vectors[54] and co-expressed with DMC1 ΔN, DMC1 ΔN loop mutant (in which DMC1 amino acids 147-GAGGYPG-153 and 178-NVDHDA-183 were replaced by the cognate sequences of RAD51 148-IDRGGGE-154 and 179-GLSGSD-184), RAD51 ΔN, RAD51 ΔN loop mutant (the reverse switch of DMC1 ΔN loop mutant), and RAD51. MBP-fusions and complexes were purified through amylose affinity chromatography.

[4] = tested on: DMC1-ssDNA filaments; experiment: EMSA, super-shift of DMC1-ssDNA filaments (TEA pH 7.5 + KCl); format: biochemical, human; conditions: 100-nt random ssDNA, 4 °C
From the text: (§2) What is the function of the BRCA2 Ex14-DMC1 interaction? We used electrophoretic mobility shift assays (EMSAs) to determine the impact of BRCA2-binding on DMC1 nucleoprotein filaments. We used two different conditions for nucleoprotein filament assembly. Firstly, a TAE (tris, acetate, EDTA; pH 7.5) buffer that was previously used for RAD51-ssDNA filaments, in which DMC1-ssDNA filaments were partially formed at the canonical ratio of three nucleotides to one protomer (Fig. 3a). Secondly, a TEA (triethanolamine; pH 7.5) + KCl buffer based on previous DMC1 studies[36]–[38], in which DMC1-ssDNA filament formation was more complete at the canonical ratio (Fig. 3b). […] This was noticeable using Ex14 in equimolar amounts (11 μM), and became substantial at a 5-fold stoichiometric excess (55 μM) (Fig. 3b). As the KD of the DMC1-Ex14 interaction is approximately 30 μM (Fig. 2a), the requirement for a stoichiometric excess is likely due to binding being favoured at Ex14 concentrations above the KD.
as §1

[5] = biological target: T1, DMC1 ΔN; experiment: Microscale thermophoresis (MST), BRCA2 peptides and DMC1 ΔN; format: binding; conditions: labelled DMC1 ΔN 150 nM
Protocol: DMC1 ΔN and DMC1 ΔN loop mutant were labelled in 10 mM HEPES pH 8.0, 150 mM NaCl with an amine reactive fluorescent dye (MonolithTM Protein Labelling Kit BLUE-NHS, Nanotemper GmbH). A serial dilution of titrant (peptide) was prepared in 10 mM HEPES pH 8.0, 150 mM NaCl, 0.05 % Tween-20. The concentration of labelled DMC1 ΔN or DMC1 ΔN loop mutant were constant at 150 nM and the concentration of the interacting peptide was titrated in 1:1 dilutions starting from 750 µM. An equal volume (10 µl) of the serial dilution and of the diluted labelled DMC1 were mixed and loaded in glass capillaries (MonolithTM NT.115 MST Premium Coated Capillaries, Nanotemper GmbH). The initial fluorescence and the thermophoretic mobility were measured on a Monolith NT.115 system (NanoTemper Technologies). The excitation power was 45 % and MST power was 60 % at room temperature (~22 °C). Laser on and off times were set at 5 and 30 seconds, respectively. Data analysis was performed with NT Affinity Analysis software.
As a change in initial fluorescence was detected, SDS denaturation (SD) tests were performed according to the manufacturer’s instructions to determine whether these changes were ligand-induced and whether the data could therefore be used to derive affinity measurements. Briefly, 7 µl of the samples containing the three highest and three lowest concentrations of peptide were mixed with 7 µl of denaturation buffer (4 % SDS, 40 mM DTT). After incubating each for 5 minutes at 95 °C to denature the proteins and subject to brief centrifugation, the samples were loaded onto Premium Coated Capillaries and their initial fluorescence measurements recorded. […] Initial fluorescence readings were used to derive binding affinities.

[6] = tested on: DMC1 V179E-ssDNA filaments; experiment: EMSA, super-shift of filaments formed using DMC1 V179E; format: biochemical, human
Protocol: as §1

[7] = tested on: RAD51-ssDNA (polydT) filaments; experiment: EMSA, protection of RAD51-ssDNA (polydT) filaments from BRC4-mediated disruption; format: biochemical; conditions: 100-nt polydT; 10-fold excess of Ex27
Protocol: as §1

[8] = tested on: RAD51-ssDNA filaments; experiment: EMSA, protection of RAD51-ssDNA filaments from BRC4-mediated disruption (random sequence ssDNA); format: biochemical; conditions: 100-nt random ssDNA; 10-fold excess of Ex27
Protocol: as §1

[9] = tested on: DMC1-ssDNA filaments; experiment: EMSA, stimulation of DMC1-ssDNA filament formation (TAE pH 7.5); format: biochemical, human
From the text: as §2, §1

[10] = biological target: the molecule itself; experiment: crystal structure; DMC1 ΔN crystals soaked overnight with 3.5 mM BRCA2 Ex14-Tr peptide; anisotropic resolution limits 3.4-5.8 Å; peptide built with the guide of an AlphaFold2 model
[11] = biological target: the molecule itself; experiment: SEC-MALS; Superdex 200 Increase 10/300 GL, 20 mM Tris pH 8.0, 150 mM KCl, 2 mM DTT; the loop mutant also by SEC-SAXS
[12] = biological target: RAD51;BRCA2 Ex27 (Homo sapiens?;Homo sapiens?, UniProt Q06609;P51587 1-339;3270-3315, |); experiment: EMSA, BRC4 protection; 10-fold excess Ex27 + BRC4, complete protection; largely protected at 33 µM Ex27; DMC1: 25 mM TEA (triethanolamine) pH 7.5, 200 mM KCl, 1 mM ATP, 2 mM MgCl2, 0.1 mg/ml BSA, 2 mM DTT, or 50 mM TAE pH 7.5, 2 mM ATP, 2 mM MgCl2, 2 mM DTT; RAD51: 50 mM TEA, 2 mM ATP, 0.5 mM MgCl2, 2 mM DTT; all 4 C, agarose gel in 0.5x TAE; conditions: tags: ;; label: none (SYBR Gold post-stain); single strand

BRCA2 Ex27 peptide (amino acids 3270-3315) (from UniProt P51587 3270-3315)
Kd [1]: > 96 µM

Ex14-AAA: Ex14 with alanine mutations F2406A, P2408A, P2409A (ATRNEKMRHLITTGRPTKVAVAAFKTKSHFHRVE; left off: His6, end not stated, cleaved | MBP, end not stated, cleaved)
protection of DMC1-ssDNA filaments from BRC4-mediated disruption [2]: almost completely lost; also recorded: largely abrogated | binding in pull-down [3]: not | super-shift of pre-formed DMC1-ssDNA filaments [4]: largely failed to stimulate or super-shift; also recorded: largely eliminated | interaction by MST (in words) ([5]; pH 8.0): largely disrupted; also recorded: not detectable | super-shift of DMC1 V179E-ssDNA filaments [6]: The residual super-shift was the same | protection of RAD51-ssDNA (polydT) filaments from BRC4-mediated disruption [7]: not | protection of RAD51-ssDNA filaments from BRC4-mediated disruption [8]: not | stimulation of DMC1-ssDNA nucleoprotein filament formation ([9]; TAE pH 7.5, 100-nt random ssDNA, 4 °C, canonical ratio of three nucleotides to one protomer, equimolar for Ex14): largely failed to stimulate filament formation | stimulation of DMC1-ssDNA filament formation at high concentrations ([9]; high peptide concentrations): partial stimulation; also recorded: some stimulation of filament formation

RPTKVFVPPFKTKS [Ex14-Tr]
Kd ([5]; MST from initial fluorescence, 10 mM HEPES pH 8.0, 150 mM NaCl, 0.05 % Tween-20, ~22 °C, mean, n = 3 independent experiments): 35.7 µM

B1: BRCA2 Ex14-Tr peptide (amino acids 2401-2414) (peptide)
peptide: RPTKVFVPPFKTKS
notes: human BRCA2 Ex14 truncated, amino acids 2401-2414; also called truncated Ex14; source: synthetic peptide (Severn Biotech)
Kd ([1]; both partners purified): 36 µM

B2
stoichiometry N [10]: 8

B3: His-DMC1 ΔN V179E mutant (domain or fragment, human, UniProt Q14565 83-340, looked up)
chain: PGFLTAFEYSEKRKMVFHITTGSQEFDKLLGGGIESMAITEAFGEFRTGKTQLSHTLCVTAQLPGAGGYPGGKIIFIDTENTFRPDRLRDIADRFNEDHDAVLDNVLYARAYTSEHQMELLDYVAAKFHEEAGIFKLLIIDSIMALFRVDFSGRGELAERQQKLAQMLSRLQKISEEYNVAVFVTNQMTADPGATMTFQADPKKPIGGHILAHASTTRISLRKGRGELRIAKIYDSPEMPENEATFAITAGGIGDAKE
notes: human DMC1 ΔN (83-340) with V179E, cloned into pHAT4; His tag named on the protein in the pull-down; also called His6-DMC1 mutant; source: E. coli, in lysate (pull-down); purified for SEC-MALS (purification not described)
stoichiometry N [11]: 8

B4: DMC1 ΔN loop mutant, purified (domain or fragment, human, UniProt Q14565 83-340, looked up)
chain: PGFLTAFEYSEKRKMVFHITTGSQEFDKLLGGGIESMAITEAFGEFRTGKTQLSHTLCVTAQLPIDRGGGEGKIIFIDTENTFRPDRLRDIADRFGLSGSDVLDNVLYARAYTSEHQMELLDYVAAKFHEEAGIFKLLIIDSIMALFRVDFSGRGELAERQQKLAQMLSRLQKISEEYNVAVFVTNQMTADPGATMTFQADPKKPIGGHILAHASTTRISLRKGRGELRIAKIYDSPEMPENEATFAITAGGIGDAKE
modifications: amine reactive fluorescent dye (Monolith Protein Labelling Kit BLUE-NHS) in the MST only
notes: The purification of the mutant is not described; probably as for DMC1 ΔN (His6 tag cleaved)
stoichiometry N [11]: 8

B5: 100-nt poly(dT) (ssDNA)
DNA: TTTTTTTTTTTTTTTTTTTTTTTTTTTTTTTTTTTTTTTTTTTTTTTTTTTTTTTTTTTTTTTTTTTTTTTTTTTTTTTTTTTTTTTTTTTTTTTTTTTT
binding result [12]: binds

B6: BRCA2 Ex14 (amino acids 2387-2420), purified (peptide, UniProt P51587 2387-2420, looked up)
chain: ATRNEKMRHLITTGRPTKVFVPPFKTKSHFHRVE
notes: human BRCA2 exon 14 PhePP region, amino acids 2387-2420; source: E. coli BL21 (DE3), purified (Ni-NTA, HiTrap Q, TEV cleavage, HiTrap SP, SEC)
Kd ([1]; both partners purified): ~30 µM
